This passage reports binding signal (% of NF-Y band supershifted) results from PMC3468502.

The target of this data set is BCL11A (Homo sapiens) (UniProt Q9H165). The experiment in a line: EMSA supershift. Particulars: with NF-Y, EMSA with nuclear extracts, 100x molar excess competitors, buffer and temperature not given (refs 25-27).
Chain of UniProt Q9H165 (Q9H165 whole entry): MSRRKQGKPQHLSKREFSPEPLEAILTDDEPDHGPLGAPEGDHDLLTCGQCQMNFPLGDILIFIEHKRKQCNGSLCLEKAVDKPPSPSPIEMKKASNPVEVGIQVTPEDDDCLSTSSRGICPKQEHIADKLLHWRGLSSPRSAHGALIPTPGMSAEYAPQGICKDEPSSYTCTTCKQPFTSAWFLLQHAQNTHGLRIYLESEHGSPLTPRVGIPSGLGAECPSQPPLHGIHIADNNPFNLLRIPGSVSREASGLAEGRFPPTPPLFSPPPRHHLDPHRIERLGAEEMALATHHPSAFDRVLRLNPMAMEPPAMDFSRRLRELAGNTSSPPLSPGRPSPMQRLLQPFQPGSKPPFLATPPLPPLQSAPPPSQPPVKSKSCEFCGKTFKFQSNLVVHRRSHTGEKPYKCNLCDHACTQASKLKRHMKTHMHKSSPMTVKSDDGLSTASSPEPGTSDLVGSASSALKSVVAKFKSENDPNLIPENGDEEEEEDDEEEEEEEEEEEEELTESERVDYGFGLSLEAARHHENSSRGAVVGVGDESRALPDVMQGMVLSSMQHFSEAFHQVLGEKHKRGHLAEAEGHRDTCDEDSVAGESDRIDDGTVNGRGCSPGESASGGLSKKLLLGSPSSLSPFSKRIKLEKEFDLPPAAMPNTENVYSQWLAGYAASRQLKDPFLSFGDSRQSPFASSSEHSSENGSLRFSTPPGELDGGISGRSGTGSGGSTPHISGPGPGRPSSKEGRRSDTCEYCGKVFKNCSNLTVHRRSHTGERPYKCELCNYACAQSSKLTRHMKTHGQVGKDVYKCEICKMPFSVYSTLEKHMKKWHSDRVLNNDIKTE

Consider “GCCTTGCCTTGACCAATAGCCTTGACAAGGCAAACTTGACCAATAGTCTTAGAGTATCCAGTGAGGCCAGGGGCCGGCGGCTGGCTAGGGATGA (double strand) [Wt proximal gamma-globin promoter probe (94 bases)]”, for which the binding signal (% of NF-Y band supershifted) is 40 (D14 extract), 30 (K562 extract) and 30 (fetal liver extract).
